The chains are these.
T1: FcγRIIa R (extracellular domain with a His tag at the C terminus) (human, UniProt P12318 34-217)
T1 construct: extracellular domain; expressed in FreeStyle293 cells; also called FcgRIIa R; FcγRIIa type R; not shown: His tag at the C terminus
T1 sequence (looked up): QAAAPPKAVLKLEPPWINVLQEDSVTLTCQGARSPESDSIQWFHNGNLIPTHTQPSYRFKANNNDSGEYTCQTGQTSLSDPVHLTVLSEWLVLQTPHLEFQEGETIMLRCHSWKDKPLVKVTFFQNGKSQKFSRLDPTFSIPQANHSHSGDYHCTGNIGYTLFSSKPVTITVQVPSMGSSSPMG

B1: GpH7-B3 variant T335_05P/GpL16-k0 (antibody, human IgG1, kappa)
heavy: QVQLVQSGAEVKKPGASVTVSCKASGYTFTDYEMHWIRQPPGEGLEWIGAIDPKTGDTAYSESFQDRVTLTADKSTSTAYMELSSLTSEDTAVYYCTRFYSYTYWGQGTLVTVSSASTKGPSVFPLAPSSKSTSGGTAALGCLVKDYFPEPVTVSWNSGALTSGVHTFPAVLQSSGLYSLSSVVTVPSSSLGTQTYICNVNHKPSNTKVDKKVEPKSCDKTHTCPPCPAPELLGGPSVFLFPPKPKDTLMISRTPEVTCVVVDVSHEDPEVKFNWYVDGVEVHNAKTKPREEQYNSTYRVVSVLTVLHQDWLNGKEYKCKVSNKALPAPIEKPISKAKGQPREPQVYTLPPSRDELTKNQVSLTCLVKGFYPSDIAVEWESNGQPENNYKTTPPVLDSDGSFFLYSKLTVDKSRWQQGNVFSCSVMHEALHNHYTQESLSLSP
light: DIVMTQSPLSLPVTPGEPASISCQASESLVHSNRNTYLHWYLQKPGQSPQLLIYKVSNRFSGVPDRFSGSGSGTDFTLKISRVEAEDVGVYYCSQNTHVPPTFGQGTKVEIERTVAAPSVFIFPPSDEQLKSGTASVVCLLNNFYPREAKVQWKVDNALQSGNSQESVTEQDSKDSTYSLSSTLTLSKADYEKHKVYACEVTHQGLSSPVTKSFNRGEC
notes: homodimerized; mutation in both H chains; also called Ho Ab
B2: GpH7-A5/GpH7-B3 variant S337_02A/GpL16-k0 (antibody, human IgG1, kappa)
heavy 1: not shown
heavy 2: not shown
light: B1 light
notes: heterodimerized; mutation in one H chain; also called He Ab
B3: GpH7-A5/GpH7-B3 variant K326_20W/GpL16-k0 (antibody, human IgG1, kappa)
heavy 1: not shown
heavy 2: not shown
light: B1 light
notes: as for B2
B4: GpH7-A5/GpH7-B3 variant K326_08L/GpL16-k0 (antibody, human IgG1, kappa)
heavy 1: not shown
heavy 2: not shown
light: B1 light
notes: as for B2
B5: GpH7-A5/GpH7-B3 variant G237_20W/GpL16-k0 (antibody, human IgG1, kappa)
heavy 1: not shown
heavy 2: not shown
light: B1 light
notes: as for B2
B6: GpH7-A5/GpH7-B3 variant K326_15Y/GpL16-k0 (antibody, human IgG1, kappa)
heavy 1: not shown
heavy 2: not shown
light: B1 light
notes: as for B2
B7: GpH7-A5/GpH7-B3 variant K326_07I/GpL16-k0 (antibody, human IgG1, kappa)
heavy 1: not shown
heavy 2: not shown
light: B1 light
notes: as for B2
B8: GpH7-B3 variant T335_13S/GpL16-k0 (antibody, human IgG1, kappa)
heavy: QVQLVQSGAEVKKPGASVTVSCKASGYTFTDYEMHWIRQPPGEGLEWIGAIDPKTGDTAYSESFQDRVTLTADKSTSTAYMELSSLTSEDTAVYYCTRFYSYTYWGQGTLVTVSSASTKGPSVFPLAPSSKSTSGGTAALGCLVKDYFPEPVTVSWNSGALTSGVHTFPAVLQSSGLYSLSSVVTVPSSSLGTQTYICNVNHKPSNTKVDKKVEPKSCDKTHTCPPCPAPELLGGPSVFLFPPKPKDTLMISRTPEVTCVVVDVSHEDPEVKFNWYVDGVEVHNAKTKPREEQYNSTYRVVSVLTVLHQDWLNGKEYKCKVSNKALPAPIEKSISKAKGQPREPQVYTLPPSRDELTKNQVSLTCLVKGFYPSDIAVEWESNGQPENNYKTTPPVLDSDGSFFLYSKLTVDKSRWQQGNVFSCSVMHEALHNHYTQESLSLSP
light: B1 light
notes: as for B1
B9: GpH7-A5/GpH7-B3 variant G237_04F/GpL16-k0 (antibody, human IgG1, kappa)
heavy 1: not shown
heavy 2: not shown
light: B1 light
notes: as for B2
B10: GpH7-A5/GpH7-B3 variant A327_09D/GpL16-k0 (antibody, human IgG1, kappa)
heavy 1: not shown
heavy 2: not shown
light: B1 light
notes: as for B2
B11: GpH7-A5/GpH7-B3 variant I332_06M/GpL16-k0 (antibody, human IgG1, kappa)
heavy 1: not shown
heavy 2: not shown
light: B1 light
notes: as for B2
B12: GpH7-A5/GpH7-B3 variant A330_01G/GpL16-k0 (antibody, human IgG1, kappa)
heavy 1: not shown
heavy 2: not shown
light: B1 light
notes: as for B2
B13: GpH7-A5/GpH7-B3 variant K334_02A/GpL16-k0 (antibody, human IgG1, kappa)
heavy 1: not shown
heavy 2: not shown
light: B1 light
notes: as for B2
B14: GpH7-A5/GpH7-B3 variant A327_10E/GpL16-k0 (antibody, human IgG1, kappa)
heavy 1: not shown
heavy 2: not shown
light: B1 light
notes: as for B2
B15: GpH7-A5/GpH7-B3 variant K326_03V/GpL16-k0 (antibody, human IgG1, kappa)
heavy 1: not shown
heavy 2: not shown
light: B1 light
notes: as for B2
B16: GpH7-A5/GpH7-B3 variant H268_01G/GpL16-k0 (antibody, human IgG1, kappa)
heavy 1: not shown
heavy 2: not shown
light: B1 light
notes: as for B2
B17: GpH7-B3 variant T335_07I/GpL16-k0 (antibody, human IgG1, kappa)
heavy: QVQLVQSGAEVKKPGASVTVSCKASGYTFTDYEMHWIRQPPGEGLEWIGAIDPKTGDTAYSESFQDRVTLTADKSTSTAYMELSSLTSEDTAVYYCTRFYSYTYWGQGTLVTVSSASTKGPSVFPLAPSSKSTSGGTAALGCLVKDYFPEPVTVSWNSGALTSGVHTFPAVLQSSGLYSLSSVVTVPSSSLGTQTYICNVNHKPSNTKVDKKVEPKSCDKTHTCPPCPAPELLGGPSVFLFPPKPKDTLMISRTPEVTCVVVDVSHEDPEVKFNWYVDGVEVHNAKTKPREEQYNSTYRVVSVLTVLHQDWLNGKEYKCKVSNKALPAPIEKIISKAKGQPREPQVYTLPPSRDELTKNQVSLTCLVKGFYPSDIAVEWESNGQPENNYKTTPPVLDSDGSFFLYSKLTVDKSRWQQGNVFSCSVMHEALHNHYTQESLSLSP
light: B1 light
notes: as for B1
B18: GpH7-A5/GpH7-B3 variant K326_04F/GpL16-k0 (antibody, human IgG1, kappa)
heavy 1: not shown
heavy 2: not shown
light: B1 light
notes: as for B2
B19: GpH7-A5/GpH7-B3 variant I336_08L/GpL16-k0 (antibody, human IgG1, kappa)
heavy 1: not shown
heavy 2: not shown
light: B1 light
notes: as for B2
B20: GpH7-A5/GpH7-B3 variant A330_12R/GpL16-k0 (antibody, human IgG1, kappa)
heavy 1: not shown
heavy 2: not shown
light: B1 light
notes: as for B2
B21: GpH7-B3 variant T335_10E/GpL16-k0 (antibody, human IgG1, kappa)
heavy: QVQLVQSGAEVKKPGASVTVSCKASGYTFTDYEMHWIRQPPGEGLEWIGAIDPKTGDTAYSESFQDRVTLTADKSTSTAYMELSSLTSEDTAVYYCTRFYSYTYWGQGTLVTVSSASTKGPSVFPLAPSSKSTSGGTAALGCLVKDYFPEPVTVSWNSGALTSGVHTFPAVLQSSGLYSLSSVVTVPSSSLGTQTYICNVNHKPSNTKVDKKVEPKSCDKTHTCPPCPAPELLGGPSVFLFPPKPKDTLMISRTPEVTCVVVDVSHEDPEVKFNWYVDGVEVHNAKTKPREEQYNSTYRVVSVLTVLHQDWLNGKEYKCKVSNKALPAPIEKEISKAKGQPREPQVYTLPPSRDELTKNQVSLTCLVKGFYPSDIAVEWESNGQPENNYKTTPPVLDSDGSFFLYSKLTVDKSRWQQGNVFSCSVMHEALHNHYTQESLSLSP
light: B1 light
notes: as for B1

For 21 molecules, Ho/Con_2aR and He/Con_2aR results are on record in US20180155451A1 (published 2018).

The assay concerns the target T1, FcγRIIa R (extracellular domain with a …). Briefly: SPR Biacore, relative binding.
As to B1, the Ho/Con_2aR was 104 % of GpH7-B3/GpL16-k0 (=100). For the molecule B2, the He/Con_2aR was 105 % of GpH7-A5/GpH7-B3/GpL16-k0 (=100). Same read-out and setting: under B3 stands 131 % of GpH7-A5/GpH7-B3/GpL16-k0 (=100); under B4, 137 % of GpH7-A5/GpH7-B3/GpL16-k0 (=100); under B5, 138 % of GpH7-A5/GpH7-B3/GpL16-k0 (=100). Still for that read-out and setting: under B6 stands 136 % of GpH7-A5/GpH7-B3/GpL16-k0 (=100). Still for that read-out and setting: under B7 stands 147 % of GpH7-A5/GpH7-B3/GpL16-k0 (=100). For the molecule B8, the Ho/Con_2aR was 102 % of GpH7-B3/GpL16-k0 (=100).

B9: the He/Con_2aR was 126 % of GpH7-A5/GpH7-B3/GpL16-k0 (=100). Still for that read-out and setting: the result for B10 reads 124 % of GpH7-A5/GpH7-B3/GpL16-k0 (=100); that for B11, 109 % of GpH7-A5/GpH7-B3/GpL16-k0 (=100). Still for that read-out and setting: the result for B12 reads 109 % of GpH7-A5/GpH7-B3/GpL16-k0 (=100); that for B13, 105 % of GpH7-A5/GpH7-B3/GpL16-k0 (=100); that for B14, 110 % of GpH7-A5/GpH7-B3/GpL16-k0 (=100). For B15, the He/Con_2aR was 141 % of GpH7-A5/GpH7-B3/GpL16-k0 (=100). For B16, the He/Con_2aR is 124 % of GpH7-A5/GpH7-B3/GpL16-k0 (=100). Consider B17, for which the Ho/Con_2aR was 107 % of GpH7-B3/GpL16-k0 (=100). As for B18, the He/Con_2aR is 135 % of GpH7-A5/GpH7-B3/GpL16-k0 (=100). As to B19, the He/Con_2aR was 110 % of GpH7-A5/GpH7-B3/GpL16-k0 (=100). The same measure, in the same setting: the result for B20 reads 104 % of GpH7-A5/GpH7-B3/GpL16-k0 (=100). On to B21, for which the Ho/Con_2aR was 109 % of GpH7-B3/GpL16-k0 (=100).
